46 substances from patent US10464978B2, “Peptides and combination of peptides for use in immunotherapy against ovarian cancer and other cancers” (immatics biotechnologies GmbH, priority 2015, dated 2019) can be followed below.

In this test the target is HLA-A*02:01 (Homo sapiens, UniProt P04439, D140Y/D185E/D98H/E176V/E277Q/G131W/G231S/I119V/I121R/I166T/I218V/L300P/L318F/N151K/N90K/P208A/P217A/Q86G/Q94H/R138H/R169H/T345S). The test can be described thus: MHC binding assay: UV-ligand exchange with beta2m ELISA (peptide exchange yield). Particulars: binding to HLA-A*02:01. In a few lines: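 Values give exchange yield, measured by β2m ELISA: 100-fold-diluted monomers bound to streptavidin plates (1h, 37° C), probed with HRP anti-β2m at 2 ug/ml and read at 450 nm after TMB. Monomers came from UV-triggered cleavage of a photolabile peptide and exchange for the test peptide.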

“81 (FLFSQLQYL; listed as Homo sapiens) [compound 81]”: the “Peptide exchange (MHC class I binding score, peptide exchange yield)” value (from here on “Peptide exchange”) is ““++” (≥20% = ++)”.
In the case of “141 (YLDFSNNRL; listed as Homo sapiens) [compound 141]”, the “Peptide exchange” value is on record as ““++” (≥20% = ++)”.
Take “506 (KLLGKVETA; listed as Homo sapiens) [compound 506]”: the “Peptide exchange” value is ““+++” (≥50 = +++)”.
Under “412 (YLDDLNEGVYI; listed as Homo sapiens) [compound 412]” stands ““++” (≥20% = ++)”; under “182 (MLLEAPGIFL; listed as Homo sapiens) [compound 182]”, ““+++” (≥50 = +++)”.
For “183 (FGLDLVTEL; listed as Homo sapiens) [compound 183]”, the “Peptide exchange” value is on record as ““+++” (≥50 = +++)”.
In the case of “397 (YLFGERLLEC; listed as Homo sapiens) [compound 397]”, the “Peptide exchange” value is ““+++” (≥50 = +++)”.
Turning to “311 (RLYTGMHTV; listed as Homo sapiens) [compound 311]”, the “Peptide exchange” value is ““+++” (≥50 = +++)”.
Take “140 (YMDAPKAAL; listed as Homo sapiens) [compound 140]”: the “Peptide exchange” value is ““++” (≥20% = ++)”.
Consider “568 (TLYDIAHTPGV; listed as Homo sapiens) [compound 568]”, for which the “Peptide exchange” value is reported as ““++++” (≥75% = ++++)”.
On to “326 (FLPEALDFV; listed as Homo sapiens) [compound 326]”, for which the “Peptide exchange” value is given as ““+++” (≥50 = +++)”.
The same measure for “501 (LLDPNVKSIFV; listed as Homo sapiens) [compound 501]”: ““+++” (≥50 = +++)”; for “48 (ALAELYEDEV; listed as Homo sapiens) [compound 48]”: ““+++” (≥50 = +++)”.
For “453 (KLLEATSAV; listed as Homo sapiens) [compound 453]”, the “Peptide exchange” value is reported as ““++” (≥20% = ++)”.
Under “97 (SLINGSFLV; listed as Homo sapiens) [compound 97]” stands ““+++” (≥50 = +++)”; under “127 (KIGDEPPKV; listed as Homo sapiens) [compound 127]”, ““++” (≥20% = ++)”; under “62 (VLLDVSAGQLLM; listed as Homo sapiens) [compound 62]”, ““++++” (≥75% = ++++)”.
The same measure for “300 (ALLGQTFSL; listed as Homo sapiens) [compound 300]”: ““+++” (≥50 = +++)”; for “548 (ALWENPESGEL; listed as Homo sapiens) [compound 548]”: ““++” (≥20% = ++)”.
Regarding “190 (FLSSLTETI; listed as Homo sapiens) [compound 190]”, the “Peptide exchange” value was ““+++” (≥50 = +++)”.
As for “451 (LLLLDTVTMQV; listed as Homo sapiens) [compound 451]”, the “Peptide exchange” value is recorded as ““++” (≥20% = ++)”.
As to “325 (FIMPATVADATAV; listed as Homo sapiens) [compound 325]”, the “Peptide exchange” value is given as ““+++” (≥50 = +++)”.
On to “128 (YLFDDPLSAV; listed as Homo sapiens) [compound 128]”, for which the “Peptide exchange” value is recorded as ““++” (≥20% = ++)”.
As for “147 (SLLEAVSFL; listed as Homo sapiens) [compound 147]”, the “Peptide exchange” value is listed as ““+++” (≥50 = +++)”.
With “488 (FLAEDPKVTL; listed as Homo sapiens) [compound 488]”, the “Peptide exchange” value is given as ““+++” (≥50 = +++)”.
Take “79 (SLFIGEKAVLL; listed as Homo sapiens) [compound 79]”: the “Peptide exchange” value was ““+++” (≥50 = +++)”.
Under “98 (LIIDQADIYL; listed as Homo sapiens) [compound 98]” stands ““+++” (≥50 = +++)”; under “264 (SLQEQLHSV; listed as Homo sapiens) [compound 264]”, ““+++” (≥50 = +++)”; under “307 (ALPVSLPQI; listed as Homo sapiens) [compound 307]”, ““+++” (≥50 = +++)”.
Under “582 (TLCDVILMV; listed as Homo sapiens) [compound 582]” stands ““+++” (≥50 = +++)”; under “606 (ALWETEVYI; listed as Homo sapiens) [compound 606]”, ““+++” (≥50 = +++)”.
For the substance “357 (SMHDLVLQV; listed as Homo sapiens) [compound 357]”, the “Peptide exchange” value was ““+++” (≥50 = +++)”.
Take “516 (AVGPASILKEV; listed as Homo sapiens) [compound 516]”: the “Peptide exchange” value is ““++” (≥20% = ++)”.
With “114 (SLVGEPILQNV; listed as Homo sapiens) [compound 114]”, the “Peptide exchange” value is ““++” (≥20% = ++)”.
“219 (KLSDIGITV; listed as Homo sapiens) [compound 219]”: the “Peptide exchange” value is given as ““+++” (≥50 = +++)”.
For the substance “24 (SLSDGLEEV; listed as Homo sapiens) [compound 24]”, the “Peptide exchange” value is ““++” (≥20% = ++)”.
Turning to “334 (TLTKVLVAL; listed as Homo sapiens) [compound 334]”, the “Peptide exchange” value was ““+++” (≥50 = +++)”.
On to “31 (YLAPELFVNV; listed as Homo sapiens) [compound 31]”, for which the “Peptide exchange” value is given as ““++” (≥20% = ++)”.
Regarding “547 (TLDITPHTV; listed as Homo sapiens) [compound 547]”, the “Peptide exchange” value is listed as ““+++” (≥50 = +++)”.
With “346 (LLDSKVPSV; listed as Homo sapiens) [compound 346]”, the “Peptide exchange” value is ““+++” (≥50 = +++)”.
The same measure for “364 (LLQNEQFEL; listed as Homo sapiens) [compound 364]”: ““+++” (≥50 = +++)”; for “438 (KLLPLAGLYL; listed as Homo sapiens) [compound 438]”: ““++++” (≥75% = ++++)”; for “102 (YLFESEGLVL; listed as Homo sapiens) [compound 102]”: ““+++” (≥50 = +++)”.
Turning to “119 (FLYIGDIVSL; listed as Homo sapiens) [compound 119]”, the “Peptide exchange” value was ““++++” (≥75% = ++++)”.
With “295 (VLDRESPNV; listed as Homo sapiens) [compound 295]”, the “Peptide exchange” value is ““+++” (≥50 = +++)”.
As to “233 (VLSETLYEL; listed as Homo sapiens) [compound 233]”, the “Peptide exchange” value is recorded as ““++” (≥20% = ++)”.
